Two molecules from paper PMC3510498, “RecOR complex including RecR N-N dimer and RecO monomer displays a high affinity for ssDNA” can be followed below.

Data set [1] deals with TTERecR P16G;TTERecO (Thermoanaerobacter tengcongensis …, UniProt Q8RDI4;Q8RB48 1-199;1-247, P19G|). Description: SPR; as strong as RecOR; SPR: 20 mM HEPES pH 7.4, 200 mM NaCl, 0.005% Tween 20, 25 C, SA chip; EMSA: 20 mM HEPES pH 7.4, 200 mM NaCl, 25 C, 30 min, 2 uM DNA.
Data set [2] has as its target TTERecR R25G;TTERecO (Thermoanaerobacter tengcongensis …, UniProt Q8RDI4;Q8RB48 1-199;1-247, R28G|). The description is as above.
Data set [3] concerns the target TTERecO (Thermoanaerobacter tengcongensis MB4, UniProt Q8RB48 1-247). Kind of data set: EMSA; 10 uM protein, 2 uM DNA; SPR: 20 mM HEPES pH 7.4, 200 mM NaCl, 0.005% Tween 20, 25 C, SA chip; EMSA: 20 mM HEPES pH 7.4, 200 mM NaCl, 25 C, 30 min, 2 uM DNA. As to conditions: protein: recombinant; tags: N-terminal His6; label: 5' biotin (SPR).
The target of data set [4] is TTERecR;TTERecO (Thermoanaerobacter tengcongensis …, UniProt Q8RDI4;Q8RB48 1-199;1-247, |). Description: SPR; SPR: 20 mM HEPES pH 7.4, 200 mM NaCl, 0.005% Tween 20, 25 C, SA chip; EMSA: 20 mM HEPES pH 7.4, 200 mM NaCl, 25 C, 30 min, 2 uM DNA.
For data set [5], the target named is TTERecR (Thermoanaerobacter tengcongensis MB4, UniProt Q8RDI4 1-199). The description is as above.
The target in data set [6] is TTERecR R25G (Thermoanaerobacter tengcongensis MB4, UniProt Q8RDI4 1-199, R28G). The data set is described as above.
Data set [7] has as its target TTERecR P16G (Thermoanaerobacter tengcongensis MB4, UniProt Q8RDI4 1-199, P19G). The data set is described as above.

B1: 60 mer ssDNA (ssDNA)
DNA: ATAAATATCGATGTTAAAGAGGATAAGATTTATAAAATAGCTTCTTATTTTCCTGTAGTA
In the case of B1, the binding result is given as “binds” in data set [1], “binds” in data set [2], “no binding” in data set [3] and “no binding” in data set [5]. For the same molecule, the equilibrium dissociation constant (Kd) in data set [4] is 0.931 nM.

B2: 60 mer dsDNA (dsDNA)
DNA 1: ATAAATATCGATGTTAAAGAGGATAAGATTTATAAAATAGCTTCTTATTTTCCTGTAGTA
DNA 2: TACTACAGGAAAATAAGAAGCTATTTTATAAATCTTATCCTCTTTAACATCGATATTTAT
With B2, the binding result in data set [1] is “binds”; in data set [2], “binds”; in data set [6], “no binding”; in data set [7], “no binding”. The Kd is 26.4 nM in data set [4] and 24800 nM in data set [5].
